Assay results reported in paper PMC8050843.

Target: Ndc80C-GFP (S. cerevisiae Ndc80 complex with GFP at the C terminus of Spc24) (S. cerevisiae) (UniProt P40460)
Chain of UniProt P40460 (P40460 whole entry, chain 1 of 4): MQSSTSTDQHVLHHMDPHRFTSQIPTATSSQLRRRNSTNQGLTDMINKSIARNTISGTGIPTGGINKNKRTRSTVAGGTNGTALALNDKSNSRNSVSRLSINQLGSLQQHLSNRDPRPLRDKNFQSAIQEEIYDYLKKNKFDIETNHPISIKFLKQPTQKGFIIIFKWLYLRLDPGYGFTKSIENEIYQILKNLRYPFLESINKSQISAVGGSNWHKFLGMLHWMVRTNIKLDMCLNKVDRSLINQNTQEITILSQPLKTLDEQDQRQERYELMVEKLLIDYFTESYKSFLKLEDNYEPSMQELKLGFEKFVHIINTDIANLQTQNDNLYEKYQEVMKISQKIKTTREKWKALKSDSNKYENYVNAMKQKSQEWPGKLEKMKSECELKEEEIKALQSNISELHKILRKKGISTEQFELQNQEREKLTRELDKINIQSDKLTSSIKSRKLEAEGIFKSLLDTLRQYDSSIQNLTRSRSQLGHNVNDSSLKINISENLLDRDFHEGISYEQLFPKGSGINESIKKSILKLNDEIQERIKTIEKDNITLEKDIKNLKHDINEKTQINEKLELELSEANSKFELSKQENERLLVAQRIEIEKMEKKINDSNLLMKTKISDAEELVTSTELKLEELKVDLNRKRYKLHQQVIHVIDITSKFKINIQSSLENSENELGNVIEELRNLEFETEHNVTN
Chain of UniProt P40460 (P33895 whole entry, chain 2 of 4, further chain): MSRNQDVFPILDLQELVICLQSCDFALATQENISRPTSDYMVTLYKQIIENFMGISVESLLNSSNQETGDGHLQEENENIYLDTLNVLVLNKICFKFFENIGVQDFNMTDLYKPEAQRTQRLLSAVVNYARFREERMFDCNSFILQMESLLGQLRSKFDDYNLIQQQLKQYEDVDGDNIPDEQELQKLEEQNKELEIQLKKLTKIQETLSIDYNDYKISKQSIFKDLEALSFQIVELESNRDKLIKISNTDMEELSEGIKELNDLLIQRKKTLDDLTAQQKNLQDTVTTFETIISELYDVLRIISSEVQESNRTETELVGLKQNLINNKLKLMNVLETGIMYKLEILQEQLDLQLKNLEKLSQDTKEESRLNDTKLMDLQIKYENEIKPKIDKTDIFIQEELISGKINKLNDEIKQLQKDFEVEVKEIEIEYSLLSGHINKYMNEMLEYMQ
Chain of UniProt P40460 (Q04477 whole entry, chain 3 of 4, further chain): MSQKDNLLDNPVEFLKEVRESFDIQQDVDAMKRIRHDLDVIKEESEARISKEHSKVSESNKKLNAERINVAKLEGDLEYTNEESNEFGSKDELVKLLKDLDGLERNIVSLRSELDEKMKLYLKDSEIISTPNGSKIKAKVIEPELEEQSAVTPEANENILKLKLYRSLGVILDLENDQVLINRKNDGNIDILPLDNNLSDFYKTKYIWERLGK
Chain of UniProt P40460 (P40014 whole entry, chain 4 of 4, further chain): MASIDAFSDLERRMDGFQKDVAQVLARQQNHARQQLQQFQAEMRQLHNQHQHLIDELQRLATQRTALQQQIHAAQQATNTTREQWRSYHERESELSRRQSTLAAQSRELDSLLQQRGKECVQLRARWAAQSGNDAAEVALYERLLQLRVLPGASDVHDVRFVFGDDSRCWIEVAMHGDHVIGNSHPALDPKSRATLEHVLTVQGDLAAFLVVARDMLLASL

Dam1C (S. cerevisiae Dam1 complex, without GFP) (from UniProt P53267 1-343; Q12248 1-94; P36131 1-295)
detachment of the Ndc80C nanobead from the MT plus end following transient end-on attachment (end-on drop-off) in the absence of Dam1C, against its presence: 31%
